According to US20220306762A1 (CRYSTAL BIOSCIENCE, published 2022):

How the values were obtained:
[1] = target: T1, His-tagged human CD38 (ACRO Biosystems CD8-H5224) (human, UniProt P28907 43-300); assay: ELISA, 1 ug/ml scFv-Fc, coated His-tagged CD38
T1 construct: bought protein; used for ELISA coating and as SPR analyte; not shown: His tag

[2] = target: T2, His-tagged cynomolgus monkey CD38 (ACRO Biosystems, CD8-05223 [sic]) (cynomolgus monkey, UniProt Q5VAN0 43-301); assay: ELISA, 1 ug/ml scFv-Fc, coated His-tagged CD38
T2 construct: bought protein; used for ELISA coating and as SPR analyte; not shown: His tag

[3] = target: T3, His-tagged mouse CD38 (ACRO Biosystems CD8-M5223) (mouse, UniProt P56528 45-304); assay: ELISA, 1 ug/ml scFv-Fc, coated His-tagged CD38
T3 construct: bought protein; used for ELISA coating and as SPR analyte; also called Murine; not shown: His tag
T3 sequence (looked up): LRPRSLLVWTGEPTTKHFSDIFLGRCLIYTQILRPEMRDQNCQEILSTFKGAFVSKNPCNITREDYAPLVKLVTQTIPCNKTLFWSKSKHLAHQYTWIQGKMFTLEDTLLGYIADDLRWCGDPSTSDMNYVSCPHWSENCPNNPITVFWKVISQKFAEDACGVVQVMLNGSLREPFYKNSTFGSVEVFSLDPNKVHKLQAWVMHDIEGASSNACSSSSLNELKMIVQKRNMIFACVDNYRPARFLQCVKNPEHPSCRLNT

[4] = target: T4, Human CD38 on transiently transfected Expi293 cells (Origene SC321273) (human, UniProt P28907 1-300); assay: flow cytometry, 10 ug/ml scFv-Fc, transfected Expi293 cells
T4 construct: whole, on cells

[5] = target: T5, Murine CD38 on transiently transfected Expi293 cells (Origene MC208001) (murine, UniProt P56528 1-304); assay: as above
T5 construct: whole, on cells
T5 sequence (looked up): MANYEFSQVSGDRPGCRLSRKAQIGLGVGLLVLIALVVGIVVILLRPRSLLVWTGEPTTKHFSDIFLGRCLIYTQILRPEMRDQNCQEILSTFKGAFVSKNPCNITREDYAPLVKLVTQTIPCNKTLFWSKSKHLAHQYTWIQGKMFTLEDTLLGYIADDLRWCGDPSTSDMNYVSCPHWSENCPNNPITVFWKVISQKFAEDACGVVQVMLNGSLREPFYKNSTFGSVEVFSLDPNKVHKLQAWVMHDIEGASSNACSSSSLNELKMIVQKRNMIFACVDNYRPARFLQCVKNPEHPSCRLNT

[6] = target: T1, His-tagged human CD38 (ACRO Biosystems …); assay: SPR (second run), His-tagged CD38
[7] = target: T2, His-tagged cynomolgus monkey CD38 (ACRO …); assay: SPR (second run), His-tagged CD38
[8] = target: T3, His-tagged mouse CD38 (ACRO Biosystems …); assay: SPR (second run), His-tagged CD38
[9] = target: T1, His-tagged human CD38 (ACRO Biosystems …); assay: SPR, IgG
[10] = target: T2, His-tagged cynomolgus monkey CD38 (ACRO …); assay: SPR, IgG
[11] = target: T3, His-tagged mouse CD38 (ACRO Biosystems …); assay: SPR, IgG

Row | Binder | ELISA signal [1] | ELISA signal [2] | ELISA signal [3] | FACS percent gated [4] [%] | FACS percent gated [5] [%] | Kd [6] [nM] | Kd [7] [nM] | Kd [8] [nM] | Kd [9] [nM] | Kd [10] [nM] | Kd [11] [nM]
1 | 40769p2.2.A9 scFv-Fc (scFv, V domains shown, scFv-Fc) VH: EVQLLESGGGLVQPGGSLRLSCTASGITFSRFNMFWVRQAPGKGLEFVASIRDDGSWTYYADSVKGQFTISRDNSKNTLYLQMNSLRAEDTAVYYCAKDYNSKDFIYHYVMDVWGQGTTVTVSS VL: QSVLTQPPSASGTPGQRVTISCSGRNSNIGNNVVNWYQQLPGTAPKLLIYRNQERPSGVPDRFSGSKSGTSASLAISGLQSEDEADYYCSTWDDSLNGWVFGGGTKLTVL | 1.55 | 1.67 | 0.044 | 91.2 | 1.57 |  |  |  |  |  | 
2 | 40769p1.1.B10 (scFv, V domains shown) VH: EVQLLESGGGLVQPGGSLRLSCTASGITFSRFNMFWVRQAPGKGLEFVASIRDDGSWTYYADSVKGRFTISRDNSKNTLYLQMNSLRAEDTAVYYCAKDYNSKDFIYHYVMDVWGQGTTVTVSS VL: QSVLTQPPSASGTPGQRVTISCSGRNSNIGNNVVNWYQQLPGTAPKLLIYRNQERPSGVPDRFSGSKSGTSASLAISGLQSEDEADYYCSTWDDSLNGWVFGGGTKLTVL |  |  |  |  |  | 29.6 | 6030 | 501 |  |  | 
3 | 40769p2.2.A5 scFv-Fc (scFv, V domains shown, scFv-Fc) VH: EVQLLESGGGLIQPGGSLRLSCTASGFDFSSYGMHWVRQAPGKGLEWVGIISDTGGTTYYGDSVKGRFTISRDNSKSTLYLQMNSLRAEDTALYYCASYIMDVWGQGTTVTVSS VL: QSVLTQPPSASGTPGQRVTISCSGSNSNVGDNAVYWYQQLPGTAPKLLFYGTNRRPSGVPDRFSGSKSGTSASLAISGLQSEDEADYYCAAWDDSLNAWVFGGGTKLTVL | 1.76 | 1.6 | 1.27 | 90.5 | 35.5 |  |  |  |  |  | 
4 | 40769p1.1.B12 (scFv, V domains shown) VH: EVQLLESGGGLIQPGGSLRLSCTASGFDFSSYGMHWVRQAPGKGLEWVGIISDSGGTTYYADSVKGRFTISRDNSKNTMYLQMNSLRAEDTALYYCASYIMDVWGQGITVTVSS VL: QSVLTQPPSASGTPGQRVTISCSGSSSNVGGNSVYWYQQLPGTAPKLLFYGNHRRPSGVPDRFSGSKSGTSASLAISGLQSEDEADYYCAVWDDSLNAWVFGGGTKLTVL |  |  |  |  |  | 91 | 582 | 249 |  |  | 
5 | 40769p2.1.E1 IgG (antibody, V domains shown, IgG) VH: EVQLLESGGGLIQPGGSLRLSCTASGFDFSSYGMHWVRQAPGKGLEWVAIISDSGGTTYYGDSVKGRFTISRDNSKSTLYLQMNSLRAEDTALYYCASYIMDVWGQGTTVTVSS VL: QSVLTQPPSASGTPEQRVTISCSGSNSNVGDNAVYWYQQLPGTAPKLLFYGTNRRPSGVPDRFSGSKSGTSASLAISGLQSEDEADYYCAAWDDSLNAWVFGGGTKLTVL |  |  |  |  |  |  |  |  | 25.6 | 261 | 1170
6 | 40769p2.1.H12 IgG (antibody, V domains shown, IgG) VH: EVQLLESGGGLIQPGGSLRLSCTASGFDFSSYGMHWVRQAPGKGLEWVGIISDSGGTTYYADSVKGRFTISRDNSKNTLYLQMNSLRAEDTALYYCASYIMDVWGQGITVTVSS VL: QSVLTQPPSASGTPGQRVTISCSGSNSNVGVNSVYWYQQLPGTAPKLLIYGSGRRPSGVPDRFSVSKSGTSASLAISGLQSEDEADYYCAAWDDGLNAWVFGGGTKLTVL |  |  |  |  |  |  |  |  | 160 | 316 | 21400
7 | 40769p2.2.D3 scFv-Fc (scFv, V domains shown, scFv-Fc) VH: EVQLLESGGGLIQPGGSLRLSCTASGFDFSSYGMHWVRQAPGKGLEWVGIISDSGGTTYYADSVKGRFTISRDNSKNTLYLQMNSLRAEDTALYYCASYIMDVWGQGITVTVSS VL: QSVLTQPPSASGTPGQRVTISCSGSNSNVGVNSVYWYQQLPGTAPKLLIYGSGRRPSGVPDRFSVSKSGTSASLAISGLQSEDEADYYCAAWDGGLNAWVFGGGTKLTVL | 1.48 | 1.34 |  | 83.5 | 13.1 |  |  |  |  |  | 
8 | 40769p2.2.E12 scFv-Fc (scFv, V domains shown, scFv-Fc) VH: EVQLLESGGGLIQPGGSLRLSCTASGFDFSSYGMHWVRQAPGKGLEWVGIISDTGGTTYYGDSVKGRFTISRDNSKSTLYLQMNSLRAEDTALYYCASYIMDVWGQGTTVTVSS VL: QSVLTQPPSASGTPGQRVTISCSGSNSNVGDNAVYWYQQPPGTAPKLLFYGTNRRPSGVPDRFSGSKSGTSASLAISGLQSEDEADYYCAAWDDSLNAWVFGGGTKLTVL | 1.67 | 1.59 | 1.26 | 91.6 | 35.9 |  |  |  |  |  | 
9 | 40769p2.2.D9 scFv-Fc (scFv, V domains shown, scFv-Fc) VH: EVQLLESGGGLVQPGGSLRLSCAGSGFTFSDYWMSWVRQAPGKGLEWVSTISITAGIIYYADSVKGRFTISRDNSKNTLYLQMNSLRAEDTAVYYCAKDNWNDYYGMDVWGQGTTVTVSS VL: QSVLTQPPSASGTPGQRVTVSCSGSRSNIRDNYVYWYQQVPGTAPKLLIYKDDQRPSGVPDRFSGSKSGTSASLVISGLQSEDEADYYCATWDGSLNARVFGGGTKLTVL | 1.51 | 1.47 | 0.043 | 92.6 | 2.87 |  |  |  |  |  | 
10 | 40769p1.2.B10 (scFv, V domains shown) VH: EVQLLESGGGLVQPGGSLRLSCPASGFDFSSYWMTWVRQAPGKGLEWVSTITDSGGRAWYADSVRGRFTISRDNSKNTLYLQMNSLRAEDTAVYYCARDTPKTYYYYAMDVWGQGTTVTV VL: QSALTQPPSASGTPGQRVTISCSGSSSNIQYSYVSWYQQLPGTAPKLLIYNNVQRPSGVPDRFSGSKSGTSASLAISGLQSEDEADYYCATWDESLLGLWVFGGGTKLTVL |  |  |  |  |  | 2.49 | 24.3 | 1660 |  |  | 
11 | 40769p1.2.C9 (scFv, V domains shown) VH: EVQLLESGGGLVQPGGSLRLSCAASGFTFSSHDMNWVRQAPGKGLEWVSTITTTGGTYYTDSVKGRFTISRDNSKNTIYLQMTSLRAEDTAVYYCTKHYSMDVWGQGTTVTVSS VL: not shown |  |  |  |  |  | 96.2 | 200 | 55 |  |  | 
12 | 40596p2.1.A2 IgG (antibody, V domains shown, IgG) VH: EVQLLESGGGLVQPGGSLTLSCTASGLTFSSYAMNWVRQAPGKGLEWVATISSNSGSFRSYADSVKGRFTISRDNSKSTLYLQTNSLRAEDTALYYCTKDRSITANDFTMDVWGQGTTVTVSS VL: EIVLTQSPGTLSVSPGERATLNCRASQTVGSRLAWYQQKPGQAPRLLIYGASSRATGIPARFSGSGSGTEFTLTISSLQSEDFAVYYCQQYYDWPPLTFGGGTKVEIK |  |  |  |  |  |  |  |  | 10.9 |  | 6.71
13 | 40769p2.2.A6 scFv-Fc (scFv, V domains shown, scFv-Fc) VH: EVQLLESGGGLVQPGGSLRLSCAASGFTFSDYEMNWVRQAPGKGLEWVSAISITGSWTYYADSVKGRFTISRDNSENTLYLQMNNLRAEDTAVYYCANYKSYYGMDVWGRGTTVTVSS VL: QSVLTQPPSASGTPGQRVTISCSGSRSNIRNNLVNWYQQLPGTAPKLLIYNTQRPSGVPDRFSGSKSGTSASLAISGLQSEDEADYYCASWDASLNAWVFGGGTKLTVL | 1.75 | 1.62 | 0.043 | 92.2 | 2.43 |  |  |  |  |  | 
14 | 40769p2.2.C11 scFv-Fc (scFv, V domains shown, scFv-Fc) VH: EVQLLESGGGLVQPGGSLRLSCAASGFTFSDYEMNWVRQAPGKGLEWVSSISITGSWTYYADSVKGRFTISRDNSKNTLYLQMNNLRAEDTAVYYCANYKSYYGMDVWGHGTTVTVSS VL: not shown | 1.53 | 1.52 | 0.043 | 92.8 | 1.26 |  |  |  |  |  | 
